Measurements published in paper PMC6468047, “Cannabinoid CB1 and CB2 Receptor-Mediated Arrestin Translocation: Species, Subtype, and Agonist-Dependence” (Frontiers in Pharmacology, 2019).
Where two headings read alike, the source gives them in different places.

Key:
[1] = molecular target: human cannabinoid receptor 1 (pplss-3HA-hCB1) (human) (UniProt P21554)
[2] = molecular target: human cannabinoid receptor 2 (3HA-hCB2) (human) (UniProt P34972)
[3] = molecular target: human vasopressin receptor 2 (3HA-hV2R) (human) (UniProt P30518)
[4] = molecular target: human D2 dopamine receptor (3HA-hD2R) (human) (UniProt P14416)
[5] = molecular target: human vasopressin receptor 2 (3HA-hV2R) (human) (UniProt P30518); remark: listed apart in the source
[6] = molecular target: human D2 dopamine receptor (3HA-hD2R) (human) (UniProt P14416); remark: listed apart in the source
[7] = molecular target: human cannabinoid receptor 1 (pplss-3HA-hCB1) (human) (UniProt P21554); remark: listed apart in the source
[8] = molecular target: human cannabinoid receptor 2 (3HA-hCB2) (human) (UniProt P34972); remark: listed apart in the source
[9] = molecular target: human vasopressin receptor 2 (3HA-hV2R) (human) (UniProt P30518); remark: listed apart in the source
[10] = molecular target: human D2 dopamine receptor (3HA-hD2R) (human) (UniProt P14416); remark: listed apart in the source
[11] = molecular target: human cannabinoid receptor 1 (pplss-3HA-hCB1) (human) (UniProt P21554); remark: listed apart in the source
[12] = molecular target: human cannabinoid receptor 2 (3HA-hCB2) (human) (UniProt P34972); remark: listed apart in the source

Sequence of human cannabinoid receptor 1 (pplss-3HA-hCB1) (human) (P21554 whole entry): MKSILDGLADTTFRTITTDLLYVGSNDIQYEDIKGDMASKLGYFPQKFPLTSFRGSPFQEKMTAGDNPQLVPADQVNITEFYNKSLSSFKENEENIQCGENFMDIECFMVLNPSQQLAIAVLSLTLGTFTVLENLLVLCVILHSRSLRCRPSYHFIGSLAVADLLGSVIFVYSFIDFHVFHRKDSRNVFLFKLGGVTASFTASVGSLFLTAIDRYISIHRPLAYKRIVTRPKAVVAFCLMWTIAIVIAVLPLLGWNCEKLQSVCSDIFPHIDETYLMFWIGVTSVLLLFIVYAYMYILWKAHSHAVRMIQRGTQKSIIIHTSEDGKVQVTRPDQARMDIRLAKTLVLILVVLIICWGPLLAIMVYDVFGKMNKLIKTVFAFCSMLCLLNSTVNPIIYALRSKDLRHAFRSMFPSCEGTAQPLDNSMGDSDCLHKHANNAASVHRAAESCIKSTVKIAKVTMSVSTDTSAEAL
Sequence of human D2 dopamine receptor (3HA-hD2R) (human) (P14416 whole entry): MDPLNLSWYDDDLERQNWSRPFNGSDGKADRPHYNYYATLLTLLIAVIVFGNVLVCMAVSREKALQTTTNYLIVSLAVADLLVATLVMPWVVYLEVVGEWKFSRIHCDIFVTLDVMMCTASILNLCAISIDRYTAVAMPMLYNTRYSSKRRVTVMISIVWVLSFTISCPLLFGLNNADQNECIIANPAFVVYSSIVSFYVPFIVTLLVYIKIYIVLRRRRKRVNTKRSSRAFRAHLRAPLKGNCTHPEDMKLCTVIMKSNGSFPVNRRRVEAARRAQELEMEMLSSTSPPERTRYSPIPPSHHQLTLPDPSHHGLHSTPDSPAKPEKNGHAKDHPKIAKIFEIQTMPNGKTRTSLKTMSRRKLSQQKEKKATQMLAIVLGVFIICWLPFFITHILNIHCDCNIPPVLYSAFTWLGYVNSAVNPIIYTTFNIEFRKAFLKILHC
Sequence of human cannabinoid receptor 2 (3HA-hCB2) (human) (P34972 whole entry): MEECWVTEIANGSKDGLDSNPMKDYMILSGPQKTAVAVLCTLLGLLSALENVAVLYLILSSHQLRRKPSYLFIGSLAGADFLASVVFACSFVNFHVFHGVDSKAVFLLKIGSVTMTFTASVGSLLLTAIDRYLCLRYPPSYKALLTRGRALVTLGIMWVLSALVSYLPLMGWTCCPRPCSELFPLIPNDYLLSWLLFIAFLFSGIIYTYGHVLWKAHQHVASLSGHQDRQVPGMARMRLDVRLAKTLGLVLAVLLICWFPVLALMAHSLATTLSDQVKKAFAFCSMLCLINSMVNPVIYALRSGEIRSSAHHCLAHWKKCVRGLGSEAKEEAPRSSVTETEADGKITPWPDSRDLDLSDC
Sequence of bovine β-arrestin-1 (Rluc8-bβ-arrestin-1-Sp1) (P17870 whole entry): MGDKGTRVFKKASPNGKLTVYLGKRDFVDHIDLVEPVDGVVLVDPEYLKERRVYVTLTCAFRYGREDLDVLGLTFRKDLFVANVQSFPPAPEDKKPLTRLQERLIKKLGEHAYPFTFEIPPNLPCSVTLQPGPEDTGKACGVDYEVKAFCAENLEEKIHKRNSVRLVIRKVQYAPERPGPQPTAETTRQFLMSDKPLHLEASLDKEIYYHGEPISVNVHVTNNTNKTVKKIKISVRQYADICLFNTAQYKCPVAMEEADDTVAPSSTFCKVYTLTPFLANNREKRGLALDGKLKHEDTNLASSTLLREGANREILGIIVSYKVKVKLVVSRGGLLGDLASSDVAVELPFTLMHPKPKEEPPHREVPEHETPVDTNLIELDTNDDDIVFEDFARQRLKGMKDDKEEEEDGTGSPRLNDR
Sequence of human β-arrestin-1 (Rluc8-hβ-arrestin-1-Sp1) (P49407 whole entry): as the sequence (P17870 whole entry) above, with E35D, H368N, R414Q, D417N counted along it
Sequence of bovine β-arrestin-2 (Rluc8-bβ-arrestin-2-Sp1) (P32120 whole entry): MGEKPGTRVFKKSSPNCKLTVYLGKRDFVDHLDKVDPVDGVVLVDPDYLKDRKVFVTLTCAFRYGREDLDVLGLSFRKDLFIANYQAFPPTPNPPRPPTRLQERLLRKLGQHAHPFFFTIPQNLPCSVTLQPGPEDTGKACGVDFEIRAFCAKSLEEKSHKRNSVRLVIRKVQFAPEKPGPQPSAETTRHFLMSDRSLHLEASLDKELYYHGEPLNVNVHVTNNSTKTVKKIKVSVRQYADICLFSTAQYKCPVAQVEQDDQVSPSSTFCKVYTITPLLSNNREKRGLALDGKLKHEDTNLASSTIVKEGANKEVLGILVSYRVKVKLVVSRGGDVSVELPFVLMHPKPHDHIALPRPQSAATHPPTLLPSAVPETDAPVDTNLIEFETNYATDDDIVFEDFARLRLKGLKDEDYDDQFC

Substance: bovine β-arrestin-1 (Rluc8-bβ-arrestin-1-Sp1) (from UniProt P17870 1-418) (natural protein)
- Response, arrestin translocation to the plasma membrane (BRET, AUC of 25 min); 1 μM CP55,940 (significantly different from vehicle) [1]: 20.8 ΔBRET.sec
- Response, arrestin translocation to the plasma membrane (BRET, AUC of 25 min); 1 μM CP55,940; GRK2 co-expressed (significantly different from vehicle) [1]: 44.4 ΔBRET.sec
- Response, arrestin translocation to the plasma membrane (BRET, AUC of 25 min); 10 μM AEA (no significant response) [1]: 6.9 ΔBRET.sec
- Response, arrestin translocation to the plasma membrane (BRET, AUC of 25 min); 10 μM BAY (no significant response) [1]: 0.7 ΔBRET.sec
- Response, arrestin translocation to the plasma membrane (BRET, AUC of 25 min); 10 μM THC (no significant response) [1]: 6.5 ΔBRET.sec
- Response, arrestin translocation to the plasma membrane (BRET, AUC of 25 min); 10 μM WIN55,212-2 (significantly different from vehicle) [1]: 48.5 ΔBRET.sec
- Response, arrestin translocation to the plasma membrane (BRET, AUC of 25 min); 31.6 μM 2-AG (significantly different from vehicle) [1]: 33.7 ΔBRET.sec
- Response, arrestin translocation to the plasma membrane (BRET, AUC of 25 min); 31.6 μM 2-AG; GRK2 co-expressed (significantly different from vehicle) [1]: 49.1 ΔBRET.sec
- Response, arrestin translocation to the plasma membrane (BRET, AUC of 25 min); 1 μM CP55,940 (significantly different from vehicle) [2]: 21.5 ΔBRET.sec
- Response, arrestin translocation to the plasma membrane (BRET, AUC of 25 min); 1 μM CP55,940; GRK2 co-expressed (significantly different from vehicle) [2]: 29 ΔBRET.sec
- Response, arrestin translocation to the plasma membrane (BRET, AUC of 25 min); 10 μM JWH-015 (not significantly different from vehicle) [2]: 14.2 ΔBRET.sec
- Response, arrestin translocation to the plasma membrane (BRET, AUC of 25 min); 10 μM JWH-133 (not significantly different from vehicle) [2]: 7.4 ΔBRET.sec
- Response, arrestin translocation to the plasma membrane (BRET, AUC of 25 min); 10 μM THC (not significantly different from vehicle) [2]: 10.8 ΔBRET.sec
- Response, arrestin translocation to the plasma membrane (BRET, AUC of 25 min); 10 μM WIN55,212-2 (significantly different from vehicle) [2]: 22.2 ΔBRET.sec
- Response, arrestin translocation to the plasma membrane (BRET, AUC of 25 min); 31.6 μM 2-AG (not significantly different from vehicle) [2]: 14.2 ΔBRET.sec
- Response, arrestin translocation to the plasma membrane (BRET, AUC of 25 min); 31.6 μM 2-AG; GRK2 co-expressed (significantly different from vehicle) [2]: 17.5 ΔBRET.sec
- Emax, arrestin translocation to the plasma membrane (BRET, AUC of 25 min); agonist AVP [3]: 177 ΔBRET.sec
- Response, arrestin translocation to the plasma membrane (BRET, AUC of 25 min); 10 μM dopamine [4]: 23.4 ΔBRET.sec
- Response, arrestin translocation to the plasma membrane (BRET, AUC of 25 min); 10 μM dopamine; GRK2 co-expressed [4]: 95 ΔBRET.sec

Substance: human β-arrestin-1 (Rluc8-hβ-arrestin-1-Sp1) (from UniProt P49407 1-418) (natural protein)
- Emax, arrestin translocation to the plasma membrane (BRET, AUC of 25 min); agonist AVP [5]: 246 ΔBRET.sec
- Response, arrestin translocation to the plasma membrane (BRET, AUC of 25 min); 10 μM dopamine [6]: 17.9 ΔBRET.sec
- Response, arrestin translocation to the plasma membrane (BRET, AUC of 25 min); 10 μM dopamine; GRK2 co-expressed [6]: 86.1 ΔBRET.sec
- Response, arrestin translocation to the plasma membrane (BRET, AUC of 25 min); 1 μM CP55,940 (not significantly different from vehicle) [7]: 17.6 ΔBRET.sec
- Response, arrestin translocation to the plasma membrane (BRET, AUC of 25 min); 1 μM CP55,940; GRK2 co-expressed (significantly different from vehicle) [7]: 28.1 ΔBRET.sec
- Response, arrestin translocation to the plasma membrane (BRET, AUC of 25 min); 10 μM AEA (not significantly different from vehicle) [7]: 10 ΔBRET.sec
- Response, arrestin translocation to the plasma membrane (BRET, AUC of 25 min); 10 μM BAY (not significantly different from vehicle) [7]: 1.4 ΔBRET.sec
- Response, arrestin translocation to the plasma membrane (BRET, AUC of 25 min); 10 μM THC (not significantly different from vehicle) [7]: 16.2 ΔBRET.sec
- Response, arrestin translocation to the plasma membrane (BRET, AUC of 25 min); 10 μM WIN55,212-2 (significantly different from vehicle) [7]: 36.2 ΔBRET.sec
- Response, arrestin translocation to the plasma membrane (BRET, AUC of 25 min); 31.6 μM 2-AG (significantly different from vehicle) [7]: 51.8 ΔBRET.sec
- Response, arrestin translocation to the plasma membrane (BRET, AUC of 25 min); 31.6 μM 2-AG; GRK2 co-expressed (significantly different from vehicle) [7]: 53 ΔBRET.sec
- Response, arrestin translocation to the plasma membrane (BRET, AUC of 25 min); 1 μM CP55,940 (significantly different from vehicle) [8]: 20.5 ΔBRET.sec
- Response, arrestin translocation to the plasma membrane (BRET, AUC of 25 min); 1 μM CP55,940; GRK2 co-expressed (significantly different from vehicle) [8]: 22.7 ΔBRET.sec
- Response, arrestin translocation to the plasma membrane (BRET, AUC of 25 min); 10 μM JWH-015 (significantly different from vehicle) [8]: 31.2 ΔBRET.sec
- Response, arrestin translocation to the plasma membrane (BRET, AUC of 25 min); 10 μM JWH-133 (not significantly different from vehicle) [8]: 4.9 ΔBRET.sec
- Response, arrestin translocation to the plasma membrane (BRET, AUC of 25 min); 10 μM THC (significantly different from vehicle) [8]: 14.4 ΔBRET.sec
- Response, arrestin translocation to the plasma membrane (BRET, AUC of 25 min); 10 μM WIN55,212-2 (not significantly different from vehicle) [8]: 3.2 ΔBRET.sec
- Response, arrestin translocation to the plasma membrane (BRET, AUC of 25 min); 31.6 μM 2-AG (significantly different from vehicle) [8]: 14.7 ΔBRET.sec
- Response, arrestin translocation to the plasma membrane (BRET, AUC of 25 min); 31.6 μM 2-AG; GRK2 co-expressed (significantly different from vehicle) [8]: 17.2 ΔBRET.sec

Substance: bovine β-arrestin-2 (Rluc8-bβ-arrestin-2-Sp1) (from UniProt P32120 1-420) (natural protein)
- Emax, arrestin translocation to the plasma membrane (BRET, AUC of 25 min); agonist AVP [9]: 194 ΔBRET.sec
- Emax, arrestin translocation to the plasma membrane (BRET, AUC of 25 min); agonist dopamine [10]: 40.6 ΔBRET.sec
- Emax, arrestin translocation to the plasma membrane (BRET, AUC of 25 min); agonist dopamine; GRK2 co-expressed [10]: 129 ΔBRET.sec
- Emax, arrestin translocation to the plasma membrane (BRET, AUC of 25 min); agonist 2-AG [11]: 116 ΔBRET.sec
- Emax, arrestin translocation to the plasma membrane (BRET, AUC of 25 min); agonist 2-AG; GRK2 co-expressed [11]: 91.7 ΔBRET.sec
- Emax, arrestin translocation to the plasma membrane (BRET, AUC of 25 min); agonist AEA [11]: 32.1 ΔBRET.sec
- Emax, arrestin translocation to the plasma membrane (BRET, AUC of 25 min); agonist CP55,940 [11]: 35.2 ΔBRET.sec
- Emax, arrestin translocation to the plasma membrane (BRET, AUC of 25 min); agonist CP55,940; GRK2 co-expressed [11]: 58.9 ΔBRET.sec
- Emax, arrestin translocation to the plasma membrane (BRET, AUC of 25 min); agonist WIN55,212-2 [11]: 72 ΔBRET.sec
- efficacy at 10 μM BAY (NA, not active; no curve could be fitted), arrestin translocation to the plasma membrane (BRET, AUC of 25 min) [11]: 2.4 ΔBRET.sec
- efficacy at 10 μM THC (NA, not active; no curve could be fitted), arrestin translocation to the plasma membrane (BRET, AUC of 25 min) [11]: 0.54 ΔBRET.sec
- Emax, arrestin translocation to the plasma membrane (BRET, AUC of 25 min); agonist 2-AG [12]: 45 ΔBRET.sec
- Emax, arrestin translocation to the plasma membrane (BRET, AUC of 25 min); agonist 2-AG; GRK2 co-expressed [12]: 75.7 ΔBRET.sec
- Emax, arrestin translocation to the plasma membrane (BRET, AUC of 25 min); agonist CP55,940 [12]: 45.4 ΔBRET.sec
- Emax, arrestin translocation to the plasma membrane (BRET, AUC of 25 min); agonist CP55,940; GRK2 co-expressed [12]: 70.9 ΔBRET.sec
- Emax, arrestin translocation to the plasma membrane (BRET, AUC of 25 min); agonist JWH-015 [12]: 26.7 ΔBRET.sec
- Emax, arrestin translocation to the plasma membrane (BRET, AUC of 25 min); agonist JWH-133 [12]: 49.7 ΔBRET.sec
- Emax, arrestin translocation to the plasma membrane (BRET, AUC of 25 min); agonist WIN55,212-2 [12]: 25.6 ΔBRET.sec
- efficacy at 10 μM THC (NA, not active; no curve could be fitted), arrestin translocation to the plasma membrane (BRET, AUC of 25 min) [12]: 2 ΔBRET.sec
